Key:
potato lectin (Sigma) = target: T1, potato lectin (Sigma) (potato, UniProt Q9S8M0 23-323); assay: microcapsule retention; L: amine capsules, BS3 two-step, 0.1 ug VHH/cm2; potato lectin coat 10 ug/ml; 100% coverage
T1 construct: Bought glycoprotein, coated on ELISA plates
T1 sequence (looked up): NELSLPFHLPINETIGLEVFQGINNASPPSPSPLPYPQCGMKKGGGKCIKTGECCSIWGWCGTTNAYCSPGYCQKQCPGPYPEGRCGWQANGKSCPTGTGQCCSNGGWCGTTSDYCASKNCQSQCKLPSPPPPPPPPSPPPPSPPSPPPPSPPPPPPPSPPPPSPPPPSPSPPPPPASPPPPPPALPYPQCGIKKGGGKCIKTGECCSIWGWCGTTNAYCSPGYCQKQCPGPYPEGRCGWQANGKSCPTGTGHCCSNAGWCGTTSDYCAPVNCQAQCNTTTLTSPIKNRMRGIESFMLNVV

potato leaf discs = assay: Leaf disc binding assay with VHH-coupled Uvitex microcapsules; parameters: species or system potato (variety Désirée)
Description: A leaf disc binding assay was used to evaluate the interaction of VHH-coupled microcapsules with potato, grass and azalea leaves. ø 8 mm leaf discs were sampled from the leaves of potato pot plants (variety Désirée), from the leaves of greenhouse-grown Lollium perenne and from the leaves of azalea pot plants. Leaf discs were washed three times with PBS. Microcapsules containing lambda cyhalothrin or Uvitex were diluted to appropriate densities in 1% skimmed milk in PBS with 0.05%-TWEEN®-20. Microcapsules were added to the leaf discs and settling of microcapsules and binding of targeting agents allowed for 1 hour. Unbound microcapsules were removed by washing three to five times with PBS with 0.05%-TWEEN®-20.
Leaf discs with Uvitex microcapsules were analyzed for bound microcapsules on a macrozoom microscope system (Nikon). Microcapsules were counted using Volocity image analysis software (Perkin Elmer). A DAPI filter was used to visualize Uvitex microcapsules. […]
A titration experiment was performed to investigate what dilution factor of microcapsules with specific VHH corresponds to an application of microcapsules to which no VHH were coupled to obtain similar amounts of microcapsules after an identical treatment. Two-fold serial dilutions of microcapsules were prepared and leaf disc binding was analyzed on potato leaf discs for these dilution series. […]

unrelated antigens [1] = assay: VHH-coupled Uvitex OB microcapsules retained on wells coated with unrelated antigen; 20% surface coverage
unrelated antigens [2] = assay: VHH-coupled lambda-cyhalothrin microcapsules retained on wells coated with unrelated antigen; 4% surface coverage

Control VHH
microcapsule counts (microcapsules) (potato lectin (Sigma)): 787

B1: VHH 3E6 (VHH)
VHH: QVQLQESGGGLVQPGGTLSLSCAASGFNVRWYGMGWFRQAPGKEREGVACISALQETTAYADSVKGRFTLSRDNPKNTLSLQMNNLQPEDTGVYYCATTDCDDSSRMTYTSYLGQGTQVTVSS
notes: also called Monovalent VHH 3E6
binding and retaining of Uvitex microcapsules to leaf surfaces (potato leaf discs): capable of binding and retaining microcapsules specifically to leaf surfaces
area of bound microcapsules (unrelated antigens [1]): 47.9
counts of bound microcapsules (microcapsules) (unrelated antigens [2]): 386

From patent US20130217572A1, “SPECIFIC DELIVERY OF AGROCHEMICALS” (VRIJE UNIVERSITEIT BRUSSEL, priority 2010, published 2013)
